# Where a chain is given by its changes, count along the chain named.
# B1: SIL-3B7 (antibody, V domains shown)
# VH: EVQLVESGGGLVQAGGSLRLSCAASARTFSNYAMGWFRQAPGKEREFVAGISWSGGYTSYADSVKGRFTISRDNAKNTVALEMNSLKPEDTAVYYCAAEGVIDELPIKTMRYEYDYWGQGTQVTVSS
# B2: SIL-2E4 (antibody, V domains shown)
# VH: EVQLVESGGGLVQPGGSLRLSCAASGSIFDDHAIGWFRQAPGKEREGVSSIMTSDDSTHYADSVKGRFTISRDKAKNTVYLQMNNLKPEDTAVYYCAATDVFGLQYSSFLKSYEYDYWGQGTQVTVSS
# B3: SIL-2D8 (antibody, V domains shown)
# VH: EVQLVESGGGLVQAGGSLRLSCTASGHNADTYAMGWFRQAPGKEREFVTGISWTGVGTYIADSVKGRFTISRDNAKNTVYLQMNSLKPEDTAVYRCAAGSDYSDSHYDKSYEYDYWGQGTQVTVSS
# B4: SIL-2E7 (antibody, V domains shown)
# VH: EVQLVESGGGLVQAGGSLRLSCAASGRTFSKNTMGWFRQAPGKEREFVAAISWSVGSTYYGDSVNGRFTISRDDAKNTVYLQMNSLKPEDTAIYYCAADSSHYMLHPELREYDYWGQGTQVTVSS
# B5: SIL-3B6 (antibody, V domains shown)
# VH: B2 VH with I70V, N85D
# B6: SIL-2D1 (antibody, V domains shown)
# VH: EVQLVESGGGSVQPGGSLRLSCAASGFTLADESSGWFRQAPGKEREGVSCISITDGITYYADSVKGRFTISRDNAKNTLYLQMNSLKPEDTAVYYCATGNPYCSGHAGTEYDDWGQGTQVTVSS
# B7: SIL-2F5 (antibody, V domains shown)
# VH: B3 VH with T23A, H27R, N28A, A40S, K43S, E44R, V56S, I60Y, N74T, R95Y
# B8: SIL-3E7 (antibody, V domains shown)
# VH: EVQLVESGGGLVQAGGSLRLSCAASARTFSNYALGWFRQVPGKEREFVAGITWSGDNTYYADSVKDRFTISRDNAKNTVWLQMNSLRPEDTAVYICAAEAVLEDKVAVSTMRYEYDYWGQGTQVTVSS
# Target: IL6 (human, UniProt P05231)
# Sequence (P05231 30-212): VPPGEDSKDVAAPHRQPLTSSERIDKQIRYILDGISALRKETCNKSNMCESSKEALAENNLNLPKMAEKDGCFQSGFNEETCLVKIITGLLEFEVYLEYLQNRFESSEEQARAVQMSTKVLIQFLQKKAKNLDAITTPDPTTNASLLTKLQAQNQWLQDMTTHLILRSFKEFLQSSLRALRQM
# Assay: ELISA, apparent
row,Binder,Kd
1,B1,> 1000 nM
2,B2,> 1000 nM
3,B3,5 nM
4,B4,2 nM
5,B5,20 nM
6,B6,80 nM
7,B7,1 nM
8,B8,> 1000 nM

# Source: patent US20260356933 (published 2026)
